Reference: patent US20110044986A1 (Amgen, published 2011)

Legend:
human Aβ42 fibrils [1] = biological target: T1, human Aβ42 fibrils (human); assay: BIAcore, fibrils immobilized, antibody injected
T1 construct: Fibrillar aggregate of the 42-residue peptide prepared in vitro; also called Fibrillar Aβ42; Aβ42 amyloid fibrils
Protocol: (§1) Preparation of Biacore Chip Surfaces: Immobilization of Proteins to a BIAcore sensor chip (CM5) was performed according to manufacturer's instructions. Briefly, carboxyl groups on the sensor chip surfaces were activated by injecting 60 μL of a mixture containing 0.2 M N-ethyl-N′-(dimethylaminopropyl) carbodiimide (EDC) and 0.05 M N-hydroxysuccinimide (NHS). Specific surfaces were obtained by injecting rProtein G (Pierce), goat anti-mouse Fc (Jackson Immuno Research Lab) or Aβ aggregates diluted in 10 mM acetate, pH 4.0 at concentrations between 5 and 20 μg/mL. Excess reactive groups on the surfaces were deactivated by injecting 60 μL of 1 M ethanolamine. […] A blank, mock-coupled reference surface was also prepared on the sensor chips for background subtraction.
(§2) Kinetic analysis of antibodies binding to immobilized Aβ fibrils: Avidity measurements to Aβ fibrils were made by immobilizing amyloid fibrils on the sensor chip surface followed by injection of antibody solutions over the surface, and injection of antibody solutions over a blank surface for background subtraction. Antibodies were diluted in PBS+0.005% P-20+0.1 mg/mL BSA at concentrations varying from 100 nM to 0.2 nM.

human Aβ40 fibrils [2] = biological target: T2, human Aβ40 fibrils (human); assay: BIAcore, fibrils immobilized, antibody injected
T2 construct: Fibrillar aggregate of the 40-residue peptide prepared in vitro; also called Fibrillar Aβ40; Aβ40 amyloid fibrils
T2 sequence (peptide, as listed by the source): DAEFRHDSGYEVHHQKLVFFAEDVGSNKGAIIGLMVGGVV
Protocol: as §1, §2

human Aβ40 monomer [3] = biological target: T3, human Aβ40 monomer (human); assay: BIAcore, antibody captured on protein G, Aβ monomer injected
T3 construct: also called soluble Aβ40
Protocol: as §1
(§3) Kinetic analysis of Aβ monomers binding to protein G captured antibodies: The kinetic analysis of the interaction between Aβ monomers and antibodies was performed as follows: Antibodies to be tested were diluted in PBS+0.005% P-20+0.1 mg/mL BSA and injected over the immobilized protein G Fc surface. Aβ monomers were diluted in PBS+0.005% P-20+0.1 mg/mL BSA from 1000 nM to 2 nM, and each concentration was injected over the captured antibody surfaces.

human Aβ42 monomer [4] = biological target: T4, human Aβ42 monomer (human); assay: as above
T4 construct: also called soluble Aβ42; monomeric Aβ42
T4 sequence (peptide, as listed by the source): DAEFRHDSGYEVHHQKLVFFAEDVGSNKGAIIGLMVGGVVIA
Protocol: as §1, §3

human Aβ42 fibrils [5] = biological target: T1, human Aβ42 fibrils; assay: ELISA, fibrils dried on plate, europium TRF
Protocol: (§4) The fibrils (Aβ or collagen) were diluted to 10 μg/ml in water and mixed thoroughly. The solution was aliquoted into the wells of a microtiter plate (Immulon-2; VWR; Cat # 62404-972) at 50 μl per well (resulting in 0.5 μg fibrils/well final). The plate was dried overnight by being placed uncovered in a 37° C. incubator.
(§5) The wells were blocked with 200 μl of blocking solution and incubated for ≧1 hour at room temperature (RT) with shaking. The blocking solution was flicked out and gently dried on a paper towel. 100 μl of primary antibody diluted in PBS containing 10% blocking solution was added to each well and the plate was incubated at RT for 1 hour with shaking. The plate was washed with 5-10× in TBS, pH 7.5+0.05% Tween 20. 100 μl of secondary antibodies (each diluted 1-2,000-fold in PBS) was added to each well and the plate was incubate at RT for 1 hour with shaking. The plate was washed with 5-10× in TBS, pH 7.5+0.05% Tween 20. 100 μl Streptavidin-Europium reagent (1-1,000-fold dilution) was added (100 μL/well) and the plate was incubated at room temperature for 45 minutes with shaking. The plate was washed 5-10× in TBS, pH 7.5+0.05% Tween 20. 120 μl Enhance Solution was added and the plate was incubated at room temperature for 15-30 minutes with shaking. The plate was read on a Victor TRF plate reader (Europium program).

human Aβ40 fibrils [6] = biological target: T2, human Aβ40 fibrils; assay: ELISA, fibrils dried on plate, europium TRF
Protocol: as §4, §5

human Aβ42 fibrils [7] = biological target: T1, human Aβ42 fibrils; assay: BIAcore, fibrils immobilized, antibody injected (avidity)
Protocol: as §1, §2

human Aβ40 fibrils [8] = biological target: T2, human Aβ40 fibrils; assay: as above
Protocol: as §1, §2

human Aβ40 monomer [9] = biological target: T3, human Aβ40 monomer; assay: ELISA, monomer coated on plate, europium TRF
Protocol: (§6) The same techniques were used for the coating of the microtiter plate for monomer ELISA. The fibrils Aβ monomer were diluted to 2.5 μg/ml in Coating buffer and mixed thoroughly. The solution was aliquoted into the wells of a microtiter plate [Immulon-2; VWR; Cat.# 62404-972] at 100 μl per well. The plate was sealed and incubated overnight at 4° C. The plate was washed 5-10× to remove Aβ coating solution prior to starting the assay.
as §5

human Aβ42 monomer [10] = biological target: T4, human Aβ42 monomer; assay: ELISA, monomer coated on plate, europium TRF
Protocol: as §6, §5

Aβ42 oligomers = biological target: T5, Aβ42 oligomers (human); assay: immunoprecipitation / Western blot
T5 construct: Soluble oligomers prepared from Aβ42 peptide in Ham's F-12; dimer, trimer and tetramer were seen on the blot; also called soluble, oligomeric species of Aβ42; Aβ42 dimer, trimer, and tetramer

[11] = biological target: amyloid plaques in unfixed Tg2576 mouse brain sections (human, UniProt P05067 672-713, limits assumed); assay: cell-based or functional assay

Row | Binder | koff (human Aβ42 fibrils [1]) | koff (human Aβ40 fibrils [2]) | Kd (human Aβ40 monomer [3]) | Kd (human Aβ42 monomer [4]) | EC50 (human Aβ42 fibrils [5]) | EC50 (human Aβ40 fibrils [6]) | Kd (human Aβ42 fibrils [7]) | koff (human Aβ42 fibrils [7]) | kon (human Aβ42 fibrils [7]) | Kd (human Aβ40 fibrils [8]) | koff (human Aβ40 fibrils [8]) | kon (human Aβ40 fibrils [8]) | EC50 (human Aβ40 monomer [9]) | EC50 (human Aβ42 monomer [10]) | further results
1 | antibody 1.2 (antibody, human IgG1, kappa, V domains shown, also called Ab 1.2; human antibody 1.2) VH: QVTLKESGPVLLKPTETLTLTCTVSGFSLSNARMGVSWIRQPPGKALEWLAHIFSNDEKSYITSLKSRLTISKDTSKSQVVLTMTNMDPVDTATYYCARIPLRSPGAFDIWGQGTMVTVSS VL: DIVMTQTPLSSPVTLGQPASISCRSSQSLVHSDGNTYLNWLQQRPGQPPRLLIYKISNRFSGVPDRFTGSGAGTDFTLKISRVEAEDVGVYTCMQVTQFPLTFGQGTRLEIKR |  |  | > 200 nM | 14 nM | 0.086 nM | 0.115 nM | 1.7 nM | 0.00019 s⁻¹ | 170000 M⁻¹ s⁻¹ | 0.06 nM | 0.00017 s⁻¹ | 2.9e+06 M⁻¹ s⁻¹ | 0.689 nM | 0.056 nM | koff (human Aβ42 monomer [4]): 0.0011 s⁻¹; kon (human Aβ42 monomer [4]): 78000 M⁻¹ s⁻¹; binding result (Aβ42 oligomers): binds
2 | antibody 1.9 (antibody, human IgG1, kappa, V domains shown, also called Ab 1.9; human antibody 1.9) VH: QVTLKESGPVLVKPTETLTLTCTVSGFSLSNARMGVSWIRQPPGKALEWLAHIFSNDEKSYSTSLKSRLTISKDTFKSQVVLTMTNMDPVDTATYYCARIPLRSPGAFDIWGQGTMVTVSS VL: EIVMTQTPLSSPVTLGQPASISCRSSQSLVHSDRNTYLSWLQQRPGQPPRLLIYKISNRFSGVPDRFSGSGAGTDFTLKISRVEAEDVGVYYCMQTTQLPLTFGQGARLEIKR |  |  | > 200 nM | 47 nM | 0.096 nM | 0.195 nM | 1.8 nM | 0.00019 s⁻¹ | 110000 M⁻¹ s⁻¹ | 0.03 nM | 0.00017 s⁻¹ | 5.3e+06 M⁻¹ s⁻¹ | 0.042 nM | 0.037 nM | koff (human Aβ42 monomer [4]): 0.0029 s⁻¹; kon (human Aβ42 monomer [4]): 61000 M⁻¹ s⁻¹
3 | antibody 1.7 (antibody, V domains shown, Human antibody from a Xenomouse hybridoma (IgG1 or IgG4 strains); also called Ab 1.7; human antibody 1.7) VH: QVTLKESGPVLVKPTETLTLTCTVSGFSLSNARMSVSWIRQPPGKALEWLAHIFSNDEKSYSTSLKSRLTISKDTSKSQVVLTMTNMDPVDTATYYCARIRGTVGFDYWGQGTLVTVSS VL: not shown |  |  | > 200 nM | > 20 nM | 0.071 nM | 0.09 nM | 2.9 nM | 0.0005 s⁻¹ | 170000 M⁻¹ s⁻¹ | 0.1 nM | 0.00042 s⁻¹ | 3.8e+06 M⁻¹ s⁻¹ | 0.615 nM | 0.052 nM | EC50 of ex vivo phagocytosis [11]: 2 µg/mL; binding result (Aβ42 oligomers): binds
4 | antibody 1.15 (antibody, V domains shown, Human anti-Aβ antibody) VH: not shown VL: DVVMTQSPFSLPVTLGQPASISCRSSQSLVYSDGNTSLNWFQQRPGQSPRRLIYKVSKWDSGVPDRFSGSGSGTDFTLKISRVEAEDVGVYYCMQGTHWPRGFTFGPGTKVDIK | 0.0011 s⁻¹ | 0.00096 s⁻¹ |  |  |  |  |  |  |  |  |  |  |  |  | 
5 | antibody 1.14 (antibody, V domains shown, Human anti-Aβ antibody) VH: EVQLVESGGGLVQPGGSLRLSCAASGFTFSSYSMNWVRQAPGKGLEWVSYISRSSSAIYYADSVKGRFTISRDNAKNSLYLQMNSLRDEDTAVYYCARETTVTTRFYYYYYGVDVWGQGTTVTVSS VL: DIQMTQSPSSVSASVGDRVTITCRASQGISSWLAWFQQKPGKAPKLLIYAASSLQSGVPSRFSGSGSGTDFTLTISSLQPEDFATYYCQQANSFPRTFGQGTKVEIK | 0.00087 s⁻¹ | 0.0013 s⁻¹ |  |  |  |  |  |  |  |  |  |  |  |  | 

Further lines, with some results ahead:

Row | koff (human Aβ42 fibrils [1]) | koff (human Aβ40 fibrils [2]) | Kd (human Aβ40 monomer [3]) | Kd (human Aβ42 monomer [4]) | EC50 (human Aβ42 fibrils [5]) | EC50 (human Aβ40 fibrils [6]) | Kd (human Aβ42 fibrils [7]) | koff (human Aβ42 fibrils [7]) | kon (human Aβ42 fibrils [7]) | Kd (human Aβ40 fibrils [8]) | koff (human Aβ40 fibrils [8]) | kon (human Aβ40 fibrils [8]) | EC50 (human Aβ40 monomer [9]) | EC50 (human Aβ42 monomer [10]) | Binder | further results
6 | 0.00029 s⁻¹ | 0.00014 s⁻¹ |  |  |  |  |  |  |  |  |  |  |  |  | antibody 7.2 (antibody, V domains shown, Human anti-Aβ antibody; also called Ab 7.2) VH: QVQLVESGGGVVQPGRSLRLSCAASGFTFSSYGMHWVRQAPGKGLEWVAVIWYDGSNKYYADSVKGRFTISRDISKNTLYLQMNSLRAEDTAVYYCARSGPPLYSGIYYYYGMDVWGQGTTVTVSS VL: SSELTQDPAVSVALGQTVRITCQGDSLRAYYAHWYQQKPGQAPVLVIYGKNNRPSGIPDRFSGSNSGNTASLTITGAQAEDEADYYCNSRDSSGNHVVFGGGTKLTVL | 
7 | 0.0021 s⁻¹ | 0.005 s⁻¹ |  |  |  |  |  |  |  |  |  |  |  |  | antibody 6.27 (antibody, V domains shown, Human anti-Aβ antibody; also called Ab 6.27) VH: QVQLQESGPGLVKPSKTLSLTCTVSGGSISSYYWSWIRQPAGKGLEWIGRIYTSGSTNLNPSLKSRVTMSIDTSKSQFSLKLSSVTAADTAVYYCARLELRNYYYGMDVWGQGTTVTVSS VL: not shown | 
8 | 0.00021 s⁻¹ | 8.2e-05 s⁻¹ |  |  |  |  |  |  |  |  |  |  |  |  | antibody 7.28 (antibody, V domains shown, Human anti-Aβ antibody; also called Ab 7.28) VH: not shown VL: QSVLTQPPSVSAAPGQKVTISCSGSSSNIGNNYVFWYQQLPGTAPKLLIYDNNKRPSGIPDRFSGSKSGTSATLGITGLQTGDEADYYCGTWDSSLSAGVFGGGTKVTAL | 
9 |  |  | 117 nM | 16 nM | 0.082 nM | 0.133 nM | 0.8 nM | 0.00016 s⁻¹ | 200000 M⁻¹ s⁻¹ | 0.02 nM | 8.1e-05 s⁻¹ | 4.2e+06 M⁻¹ s⁻¹ | 0.054 nM | 0.045 nM | antibody 1.1 (antibody, human IgG1, kappa, V domains shown, also called Ab 1.1; human antibody 1.1) VH: QVTLKESGPVLVKPTETLTLTCTVSGFSLSNARMSVSWIRQPPGKALEWLAHIFSNDEKSYSTSLKSRLTISKDTSKSQVVLTMTNMDPVDTATYYCARIRGTVGYDYWGQGTLVTVSS VL: not shown | koff (human Aβ40 monomer [3]): 0.015 s⁻¹; kon (human Aβ40 monomer [3]): 130000 M⁻¹ s⁻¹; koff (human Aβ42 monomer [4]): 0.0039 s⁻¹; kon (human Aβ42 monomer [4]): 240000 M⁻¹ s⁻¹
10 | 0.0026 s⁻¹ | 0.004 s⁻¹ |  |  |  |  |  |  |  |  |  |  |  |  | antibody 6.18 (antibody, V domains shown, Human anti-Aβ antibody; also called Ab 6.18) VH: EVQLVESGGGLVQPGGSLRLSCAASGFTFSSYSMNWVRQAPGKGLEWLSYISSRSSTIYYADSVKGRFTISRDNAKNSLYLQMNSLRDEDTAVYYCARERTGTTRYYYYYYGMDVWGQGTTVTVSS VL: DIQMTQSPSSVSASVGDRVTITCRASQGISSWLAWSQQKPGKAPKLLIYAASSLQSGVPSRFSGSGSGTDFTLTISSLQPEDFATYYCQQANSFPRTFGQGTKVEIK | 
11 | 0.00049 s⁻¹ | 0.0008 s⁻¹ |  |  |  |  |  |  |  |  |  |  |  |  | antibody 7.11 (antibody, V domains shown, Human anti-Aβ antibody; also called Ab 7.11) VH: QLQLQESGPGLVKPSETLSLTCTVSGGSISSSRYYWGWIRQPPGKGLEWIGSISYRGNTYYYPSLKSRVTISVDTSKNQFSLKLNSVTAADTAVYYCARRTYSSGWSYFDYWGQGTLVTVSS VL: SYELTQPYSMSVATAQMARITCGGNNIGSKAVHWYQQKPGQDPVLVIYSDSNRPSGIPERFSGSNPGNTATLTISRIEAGDEANYYCQVWDSSSDHWVFGGGTKLTVL | 
